Data: patent US20180086841A1 (Merck Sharp & Dohme, published 2018)
Numbering of substitutions follows the chain as printed.

T1: Macaca mulatta CD27 (mmCD27) (Macaca mulatta (rhesus) / Macaca …, UniProt P26842 21-260 (human entry))
T1 chain: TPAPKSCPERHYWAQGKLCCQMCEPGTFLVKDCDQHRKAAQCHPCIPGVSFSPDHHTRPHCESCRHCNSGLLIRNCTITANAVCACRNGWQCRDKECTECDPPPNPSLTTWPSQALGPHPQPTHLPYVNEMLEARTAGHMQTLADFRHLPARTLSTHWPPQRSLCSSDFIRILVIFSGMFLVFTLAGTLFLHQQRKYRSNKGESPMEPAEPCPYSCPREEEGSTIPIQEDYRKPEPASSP

T2: His9G-tagged cynomolgus CD27 recombinant protein (cynomolgus, limits assumed)
T2 construct: In-house, transient transfection of HEK293 cells; also called Cyno CD27/His
T2 chain: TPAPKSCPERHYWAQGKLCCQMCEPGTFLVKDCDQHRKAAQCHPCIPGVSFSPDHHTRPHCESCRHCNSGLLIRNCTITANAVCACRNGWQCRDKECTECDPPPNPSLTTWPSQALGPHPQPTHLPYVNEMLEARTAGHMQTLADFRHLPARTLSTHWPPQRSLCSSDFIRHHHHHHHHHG

T3: human CD27 A59T-Fc fusion protein (human, UniProt P26842 21-191)
T3 construct: not shown: Fc part
T3 chain: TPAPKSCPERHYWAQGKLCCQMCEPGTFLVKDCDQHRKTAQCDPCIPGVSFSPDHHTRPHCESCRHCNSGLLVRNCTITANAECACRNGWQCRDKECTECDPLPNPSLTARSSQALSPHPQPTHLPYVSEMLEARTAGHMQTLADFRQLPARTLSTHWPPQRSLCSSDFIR

T4: rhesus macaque CD27-Fc fusion protein (rhesus macaque, UniProt P26842 21-191 (human entry), limits assumed)
T4 construct: not shown: Fc part
T4 chain: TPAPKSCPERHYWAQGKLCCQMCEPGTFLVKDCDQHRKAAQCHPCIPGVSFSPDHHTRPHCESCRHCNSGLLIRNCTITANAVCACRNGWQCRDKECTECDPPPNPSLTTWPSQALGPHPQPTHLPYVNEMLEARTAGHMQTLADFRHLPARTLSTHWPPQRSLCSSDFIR

B1: hCD27.15-4B IgG4 (antibody, V domains shown)
VH: QVQLVQSGAEVKKPGASVKVSCKASGFIIKATYMHWVRQAPGQRLEWMGRIDPANGETKYDPKFQVRVTITADTSASTAYMELSSLRSEDTAVYYCARYAWYFDVWGQGTLVTVSS
VL: DIQMTQSPSSLSASVGDRVTITCRASENIYSFLAWYQQKPGKAPKLLIYHAKTLAEGVPSRFSGSGSGTDFTLTISSLQPEDFATYYCQHYYGSPLTFGQGTKVEIKR
B2: hCD27.131A VH6VL7 huIgG1 (antibody, V domains shown)
VH: EIQLVQSGAEVKKPGASVKVSCKASGYTFTNYGMNWVKQAPGQGLKWMGWINTNTGEPTYAEEFKGRFTFTLDTSISTAYMELSSLRSEDTAVYYCAREGDAMDYWGQGTTVTVSS
VL: EIVLTQSPATLSLSPGERATLSCSASSSVSYMHWYQQKPGQAPKRWIYDTSKLASGVPARFSGSGSGTSYSLTISSLEPEDFATYYCQQWNSYPFTFGQGTKLEIK
B3: hCD27.131A VH6VL8 huIgG1 (antibody, V domains shown)
VH: B2 VH
VL: B2 VL with L13A, A19V, S69D, L77M, T84V
B4: hCD27.131A VH7VL6 huIgG1 (antibody, V domains shown)
VH: B2 VH with V20I, I76A, S77T, M81L, L83I
VL: B2 VL with S69D, T84V
B5: hCD27.131A VH7VL7 huIgG1 (antibody, V domains shown)
VH: B2 VH with V20I, I76A, S77T, M81L, L83I
VL: B2 VL
B6: hCD27.131A VH7VL8 huIgG1 (antibody, V domains shown)
VH: B2 VH with V20I, I76A, S77T, M81L, L83I
VL: B2 VL with L13A, A19V, S69D, L77M, T84V
B7: hCD27.131A VH8VL6 huIgG1 (antibody, V domains shown)
VH: B2 VH with S88N
VL: B2 VL with S69D, T84V
B8: hCD27.131A VH8VL7 huIgG1 (antibody, V domains shown)
VH: B2 VH with S88N
VL: B2 VL
B9: hCD27.131A VH8VL8 huIgG1 (antibody, V domains shown)
VH: B2 VH with S88N
VL: B2 VL with L13A, A19V, S69D, L77M, T84V
B10: 131AVH6VL6-hIgG2 (antibody)
heavy: EIQLVQSGAEVKKPGASVKVSCKASGYTFTNYGMNWVKQAPGQGLKWMGWINTNTGEPTYAEEFKGRFTFTLDTSISTAYMELSSLRSEDTAVYYCAREGDAMDYWGQGTTVTVSSASTKGPSVFPLAPCSRSTSESTAALGCLVKDYFPEPVTVSWNSGALTSGVHTFPAVLQSSGLYSLSSVVTVPSSNFGTQTYTCNVDHKPSNTKVDKTVERKCCVECPPCPAPPVAGPSVFLFPPKPKDTLMISRTPEVTCVVVDVSHEDPEVQFNWYVDGVEVHNAKTKPREEQFNSTFRVVSVLTVVHQDWLNGKEYKCKVSNKGLPAPIEKTISKTKGQPREPQVYTLPPSREEMTKNQVSLTCLVKGFYPSDIAVEWESNGQPENNYKTTPPMLDSDGSFFLYSKLTVDKSRWQQGNVFSCSVMHEALHNHYTQKSLSLSPGK
light: EIVLTQSPATLSLSPGERATLSCSASSSVSYMHWYQQKPGQAPKRWIYDTSKLASGVPARFSGSGSGTDYSLTISSLEPEDFAVYYCQQWNSYPFTFGQGTKLEIKRTVAAPSVFIFPPSDEQLKSGTASVVCLLNNFYPREAKVQWKVDNALQSGNSQESVTEQDSKDSTYSLSSTLTLSKADYEKHKVYACEVTHQGLSSPVTKSFNRGEC
notes: also called 131A6 IgG2 (humanized)

Legend:
human CD27 [1] = target: T5, human CD27 (human, UniProt P26842 21-260); experiment: cell-based or functional assay
human CD27 (A59T) = human CD27 (A59T) (human, UniProt P26842 21-260); experiment: cell-based or functional assay
[2] = target: T1, Macaca mulatta CD27 (mmCD27); experiment: cell-based or functional assay
human CD27 [3] = target: T5, human CD27; experiment: flow cytometry on primary T cells
human CD27 [4] = target: T5, human CD27; experiment: cell ELISA on transfected CHO cells
Experimental: (§1) Purified antibodies were assayed for binding to human CD27 expressing CHOK1 cells using a cell-based ELISA format. Human CD27 expressing CHOK1 cells were plated in 96-well tissue-culture plates in 50 μl of DMEM/F12, 10% BCS (bovine calf serum) (CHO-K1 media). Cells were plated at either 2×10⁴ cells/well two days prior to the assay or 4×10⁴ cells/well one day prior to the assay. Media was removed from the wells prior to the assay followed by incubation of mAb in 100 μL fresh culture medium at a starting concentration of 10 μg/mL and 8 step 1:5 serial dilutions (hIgG4 antibodies) or starting concentration of 50 μg/mL and 8 step 1:5 serial dilutions (hIgG1 antibodies). The antibodies were incubated for 30-60 minutes at room temperature and washed 3 times with PBS/0.05% Tween 20 using a cell ELISA washing protocol on the Biotek EL405x Select CW plate washer.

human CD27 [5] = target: T5, human CD27; experiment: cell ELISA on human CD27 CHOK1 cells, hIgG1
Experimental: as §1

human CD27 [6] = target: T5, human CD27; experiment: flow cytometry MFI, CD4+ T cells of human PBMC, N=2 donors
Experimental: (§2) Labeled cells were washed by re-suspending them in 150 ul of staining buffer (SB) followed by centrifugation at 300 g for 5 minutes. Cells were then resuspended in 100 ul of SB containing primary anti-CD27 antibodies at various concentrations, incubated in the dark at 4° C. for 30 minutes, followed by washing and centrifugation steps as previously described. […] Cells were incubated for 30 minutes at 4° C. in the dark, followed by washing and centrifugation steps. Next, cells were stained with a cocktail of phenotypic antibodies for surface markers (CD3, CD4, CD8, CD11b) and incubated for 30 minutes at 4° C. in the dark, followed by washing and centrifugation steps. […] Samples were acquired in a LSR-Fortessa flow cytometer (BD Biosciences) using the high throughput sampler and data analyzed by FlowJo software (Tree Star Inc).

human CD27 [7] = target: T5, human CD27; experiment: flow cytometry MFI, CD8+ T cells of human PBMC, N=2 donors
Experimental: as §2

[8] = target: T6, His9G-tagged human CD27 recombinant protein (human, UniProt P26842 21-191); experiment: SPR Biacore 4000, antibody captured on anti-human Fc, His9G-tagged CD27 injected, 1:1 fit;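 further: Double-referenced SPR (blank anti-Fc surface and buffer injection subtracted), KD derived from association and dissociation rate constants, with human and cynomolgus CD27 as analytes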
T6 construct: In-house, transient transfection of HEK293 cells; also called Human CD27/His
Text: (§3) Flow cell spots modified with anti-human Fc antibody but lacking CD27 antibodies were used as reference. […] The chip surface was regenerated with a 30 second injection of 3M MgCl₂ after each injection cycle.
(§4) Data were double referenced by subtracting the response from a blank surface and that from a buffer injection and used for analyzing the rate constant of association (kₐ) and dissociation (kd), and the equilibrium dissociation constant KD. The resulting data sets were fitted with a Langmuir 1:1 binding model using the Biacore 4000 BIAevaluation software, version 1.0 (GE/Biacore).

[9] = target: T2, His9G-tagged cynomolgus CD27 …; experiment: as above
Text: as §3, §4

[10] = target: T7, human CD27-Fc fusion protein (human, UniProt P26842 21-191); experiment: SPR Biacore T200, CD27-Fc amine-coupled, antibody injected, 1:1 Langmuir fit
T7 construct: not shown: Fc part

[11] = target: T3, human CD27 A59T-Fc fusion protein; experiment: as above
Text: (§5) Antibody injections lasted 180 seconds and after the injections dissociation was monitored for 900 seconds. Following each injection cycle the antigen surface was regenerated with a 30 second injection of 3M MgCl₂.
(§6) Sensograms were “double referenced” by subtracting the response from a blank surface and that from a buffer injection and used for analyzing the rate constant of association (ka) and dissociation (kd), and the equilibrium dissociation constant KD. The resulting data sets were fitted with a 1:1 Langmuir Binding Model using the Biacore T200 evaluation software (version 2.0).

[12] = target: T4, rhesus macaque CD27-Fc fusion protein; experiment: as above
Text: as §5, §6

Binder	NF-κB-luciferase reporter assay, Fold Change values at 2.5 µg/ml (human CD27 [1]) [fold change]	NF-κB-luciferase reporter assay, Fold Change values at 2.5 µg/ml (human CD27 (A59T)) [fold change]	NF-κB-luciferase reporter assay, Fold Change values at 2.5 µg/ml [2] [fold change]	EC50 relative to 131AVH6VL6-hIgG1 (human CD27 [3])	fold EC50 against 131AVH6VL6-hIgG1 (human CD27 [4]) [fold]	EC50 (human CD27 [5]) [nM]	EC50 (human CD27 [6]) [nM]	EC50 (human CD27 [7]) [nM]	Kd [8] [nM]	Kd [9] [nM]	Kd [10] [nM]	Kd [11] [nM]	Kd [12] [nM]
B1	1.82	0.97	0.99										
B2				≤ 10 % above the EC50 of 131AVH6VL6-hIgG1	≤ 2	0.13	0.123	0.11	71.7	41.9			
B3				≤ 10 % above the EC50 of 131AVH6VL6-hIgG1	≤ 2	0.131	0.126	0.124	68.2	56.5			
B4				≤ 10 % above the EC50 of 131AVH6VL6-hIgG1	≤ 2	0.162	0.128	0.127	41.3	34.8			
B5				≤ 10 % above the EC50 of 131AVH6VL6-hIgG1	≤ 2	0.207	0.113	0.111	38.9	31.7			
B6				≤ 10 % above the EC50 of 131AVH6VL6-hIgG1	≤ 2	0.144	0.118	0.118	44.9	36.5			
B7				≤ 10 % above the EC50 of 131AVH6VL6-hIgG1	≤ 2	0.298	0.124	0.113	64.4	46.6			
B8				≤ 10 % above the EC50 of 131AVH6VL6-hIgG1	≤ 2	0.262	0.115	0.111	63.3	44.1			
B9				≤ 10 % above the EC50 of 131AVH6VL6-hIgG1	≤ 2	0.145	0.135	0.131	61	32.3			
B10											6.4	8.2	5.5
